According to patent publication US20250057968A1, “ANTI-DLL3 ANTIBODY AND PHARMACEUTICAL USE THEREOF, AND ANTIBODY-DRUG CONJUGATE CONTAINING ANTI-DLL3 ANTIBODY” (Jiangsu Hengrui Pharmaceuticals Co., Ltd., priority 2021, published 2025):

T1: RatDLL3/CHO-s (Rattus norvegicus, UniProt O88671)
T1 construct: Rat DLL3 full-length protein; expressed in transfected cells; host or cells: CHO-s (Invitrogen, R80007), lentiviral transduction
T1 sequence (O88671 33-589): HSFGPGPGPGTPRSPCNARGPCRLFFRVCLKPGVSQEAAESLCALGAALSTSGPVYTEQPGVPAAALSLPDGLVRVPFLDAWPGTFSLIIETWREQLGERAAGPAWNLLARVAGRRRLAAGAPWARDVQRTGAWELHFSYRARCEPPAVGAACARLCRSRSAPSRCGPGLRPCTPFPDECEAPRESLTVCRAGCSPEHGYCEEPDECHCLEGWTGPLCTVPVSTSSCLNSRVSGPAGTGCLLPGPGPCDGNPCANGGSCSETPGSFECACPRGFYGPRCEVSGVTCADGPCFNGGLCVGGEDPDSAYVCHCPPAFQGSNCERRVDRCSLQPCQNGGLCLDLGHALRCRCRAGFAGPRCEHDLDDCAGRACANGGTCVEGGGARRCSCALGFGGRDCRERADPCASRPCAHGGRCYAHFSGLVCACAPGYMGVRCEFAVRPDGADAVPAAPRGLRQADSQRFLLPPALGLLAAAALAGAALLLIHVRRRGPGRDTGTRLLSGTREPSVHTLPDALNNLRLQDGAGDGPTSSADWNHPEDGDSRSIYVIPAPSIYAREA

T2: Rat DLL3 full-length protein on CHO-s cells (rat, UniProt O88671 33-589)
T2 construct: also called RatDLL3/CHO-s; ratDLL3/CHO-s
T2 sequence: T1 sequence (O88671 33-589)

T3: Human DLL3 full-length protein on cells (human, UniProt Q9NYJ7 27-618)
T3 construct: H1184 and DMS53 express DLL3 themselves; The cell line is named under assay; also called H1184 cells; DLL3/H82
T3 sequence: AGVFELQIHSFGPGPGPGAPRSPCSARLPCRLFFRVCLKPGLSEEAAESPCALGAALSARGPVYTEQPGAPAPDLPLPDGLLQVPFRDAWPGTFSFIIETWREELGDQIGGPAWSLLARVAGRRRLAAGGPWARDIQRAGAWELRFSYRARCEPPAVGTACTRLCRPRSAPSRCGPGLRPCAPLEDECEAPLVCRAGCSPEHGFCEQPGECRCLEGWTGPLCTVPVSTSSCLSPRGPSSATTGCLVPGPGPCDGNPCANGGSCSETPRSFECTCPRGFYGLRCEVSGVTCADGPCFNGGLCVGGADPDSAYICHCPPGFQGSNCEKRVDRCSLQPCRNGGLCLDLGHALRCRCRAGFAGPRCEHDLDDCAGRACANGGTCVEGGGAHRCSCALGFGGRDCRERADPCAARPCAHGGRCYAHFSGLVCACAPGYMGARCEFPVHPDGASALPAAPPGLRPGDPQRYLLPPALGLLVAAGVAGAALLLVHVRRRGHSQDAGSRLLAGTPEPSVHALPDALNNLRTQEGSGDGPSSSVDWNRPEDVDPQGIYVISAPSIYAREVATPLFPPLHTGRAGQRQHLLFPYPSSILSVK

T4: Cynomolgus monkey DLL3 full-length protein on CHO-s cells (cynomolgus monkey, UniProt Q9NYJ7 27-618 (human entry))
T4 construct: also called cynoDLL3/CHO-s
T4 chain: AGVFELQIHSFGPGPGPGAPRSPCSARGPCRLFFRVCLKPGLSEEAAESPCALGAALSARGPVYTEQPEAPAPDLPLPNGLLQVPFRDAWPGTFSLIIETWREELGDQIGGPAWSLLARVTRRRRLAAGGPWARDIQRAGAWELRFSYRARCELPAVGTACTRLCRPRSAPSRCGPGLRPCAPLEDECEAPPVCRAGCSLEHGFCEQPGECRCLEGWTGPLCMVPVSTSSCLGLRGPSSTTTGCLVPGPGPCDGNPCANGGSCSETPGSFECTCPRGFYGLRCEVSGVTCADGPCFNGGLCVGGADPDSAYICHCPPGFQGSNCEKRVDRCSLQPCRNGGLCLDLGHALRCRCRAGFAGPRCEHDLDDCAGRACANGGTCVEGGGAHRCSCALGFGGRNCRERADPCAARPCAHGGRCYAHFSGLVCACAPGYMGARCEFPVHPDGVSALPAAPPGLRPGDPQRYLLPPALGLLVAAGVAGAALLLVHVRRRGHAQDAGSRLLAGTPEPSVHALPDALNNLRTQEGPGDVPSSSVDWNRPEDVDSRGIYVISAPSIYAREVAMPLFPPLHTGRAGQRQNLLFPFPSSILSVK

B1: BI-764532 (antibody, human IgG1, kappa, V domains shown)
VH: QVQLVQSGAEVKKPGASVKVSCKASGYTFTSYYVHWVRQAPGQGLEWMVIINPGGGTTSYAQKFLGRVTMTRDTSTNTVYMELKSLRSEDTAVYYCARGEAVTGNYFYYGMDVWGQGTTVTVSS
VL: DIQMTQSPSAMSASVGDRVTITCRASQGISNYLVWFQQKPGKAPKRLIYAVSSLYSGVPSRFSGSGSGTEFTLTISSLQPEDFATYYCLQHDSYPYTFGQGTKLEIKR
notes: also called positive control molecule

Tests used:
[1] = target: T1, RatDLL3/CHO-s; experiment: Cell-level FACS binding assay, RatDLL3/CHO-s cells
Procedure: (§1) Cells of the DLL3-expressing small cell lung cancer cell lines H1184 (ATCC, Cat. No. CRL-5858), DLL3/H82, cynoDLL3/CHO-s, and RatDLL3/CHO-s were suspended at 1×10^6/mL in FACS buffer (1% BSA+pH 7.4 PBS), and the cell suspensions were added to a 96-well round-bottom plate (Corning, 3795) at 100 μL/well. The plate was centrifuged at 300 g for 5 min, and the supernatant was removed. Different concentrations of test antibodies were added at 100 μL/well. The plate was incubated in the dark in a refrigerator at 4° C. for 1 h. After 3 washes by centrifugation at 300 g, working concentrations of APC anti-human IgG Fc (BioLegend, 410712) or PE F(ab′)2-goat anti-human IgG (invitrogen, H10104) were added. The plate was incubated in the dark in a refrigerator at 4° C. for 40 min. After 3 washes by centrifugation at 300 g, the geometric mean fluorescence intensity was measured on an Invitrogen flow cytometer, and the EC50 values of the antibodies in binding to DLL3-expressing cells were calculated. The results are shown in Table 11-1, Table 11-2, Table 11-3, and FIG. 1A to FIG. 1C.

[2] = target: T2, Rat DLL3 full-length protein on CHO-s …; experiment: FACS on RatDLL3/CHO-s cells
Procedure: as §1, with “calculated.” for “calculated. The results are shown in Table 11-1, Table 11-2, Table 11-3, and FIG. 1A to FIG. 1C.”

[3] = target: T3, Human DLL3 full-length protein on cells; experiment: FACS on H1184 cells
Procedure: as §1, with “calculated.” for “calculated. The results are shown in Table 11-1, Table 11-2, Table 11-3, and FIG. 1A to FIG. 1C.”

[4] = target: T4, Cynomolgus monkey DLL3 full-length …; experiment: FACS on cynoDLL3/CHO-s cells
Procedure: as §1, with “calculated.” for “calculated. The results are shown in Table 11-1, Table 11-2, Table 11-3, and FIG. 1A to FIG. 1C.”

[5] = target: T5, hDLL3(ECD)-strep twin, biotinylated (human, UniProt Q9NYJ7 27-492, biotinylated (site not stated)); experiment: competition ELISA: BI-764532 coated on the plate (1 µg/mL), biotinylated DLL3-Strep (0.1 µg/mL) with soluble BI-764532 as competitor, streptavidin-peroxidase detection, OD450
T5 construct: also called Biotinylated DLL3 antigen; Biotinylated DLL3-Strep
Procedure: The plate was washed 3 times with 250 μL of PBST solution per well. The plate was blocked with 250 μL of 5% milk per well at 37° C. for 2 h. The plate was washed 3 times with 250 μL of PBST solution per well. […] The plate was washed 6 times with 250 μL of PBST solution per well. […] The plate was washed 6 times with 250 μL of PBST solution per well. TMB (KPL, 5120-0077) substrate solution was added at 100 μL/well, and color development was allowed at room temperature for 5-10 min.

[6] = target: T3, Human DLL3 full-length protein on cells; experiment: cell-based or functional assay

Molecule | binding to cells expressing rat DLL3 (in words) [1] | binding result [2] | EC50 [3] [nM] | Emax [3] | EC50 [4] [nM] | Emax [4] | IC50 (read off the curve) [5] [µg/mL] | IC50 (nM), cell killing caused by endocytosis of antibodies (DT3C, DMS53/DLL3 cells) [6] [nM] | Imax, cell killing caused by endocytosis of antibodies (DT3C, DMS53/DLL3 cells) [6]
BI-764532: positive control molecule, constructed by reference to WO2019234220A1; heavy chain SEQ ID NO: 62, light chain SEQ ID NO: 63 [reference compound] | No binding | – | – | – | – | – | – | – | –
B1 | – | no binding | 3.94 | 1620 | 3.42 | 963 | ~0.06 | 3.27 | 86.5
